In patent US20210380703A1 (RIGEL PHARMACEUTICALS, published 2021):
Residue numbers refer to the chain shown, from its start.

B1: 367_A09 (antibody, V domains shown)
VH: EVQLLESGGGLVQPGGSLRLSCAASGFTFDSYGMNWVRQAPGKGLEWVAGINYNGGYTSYADSVKGRFTISRDNSKNTLYLQMNSLRAEDTAVYYCARSATWHDTHLDYWGQGTLVTVSS
VL: DIQMTQSPSSLSASVGDRVTITCRASQSILSYVNWYQQKPGKAPKLVIYAATSRHSGVPSRFSGSGSGTDFTLTISSLQPEDFATYYCQQSYDTPLTFGGGTKVEIK
notes: VH/VL only
B2: 369_E10 (antibody, V domains shown)
VH: B1 VH with D30S, G33S, A49S, G50N, T58K, H106A
VL: B1 VL with H55A, T94L
notes: VH/VL only
B3: 367_F05 (antibody, V domains shown)
VH: B1 VH with D30S, G50S, S59G, H106A
VL: B1 VL with V47L, H55A, D93S, T94S
notes: VH/VL only
B4: 369_A05 (antibody, V domains shown)
VH: B1 VH with D30S, G33S, S59G
VL: B1 VL with S31T, H55A, D93E, T94S
notes: VH/VL only
B5: 369_C10 (antibody, V domains shown)
VH: B1 VH with D30S, G33S, G50N, H106A
VL: B1 VL with L30V, S31T, V33L, V47L, R54L, Y92D, D93S, T94L
notes: VH/VL only
B6: 367_G07 (antibody, V domains shown)
VH: B1 VH with G33S, G50N, S59G
VL: B1 VL with S31T, V47L, H55A, T94N
notes: VH/VL only
B7: 368_H12 (antibody, V domains shown)
VH: B1 VH with G33S, G50S, G55S, T58K, S59G
VL: B1 VL with L30V, S31T, V33L, V47L, H55A, D93E, T94S
notes: VH/VL only
B8: 368_E11 (antibody, V domains shown)
VH: B1 VH with N35H, G50N
VL: B1 VL with L30I, V47L, D93E, T94L
notes: VH/VL only
B9: 367_H07 (antibody, V domains shown)
VH: B1 VH with D30S, G33S, G50N, S59G, H106A
VL: B1 VL with A51T, H55A, D93E, T94N
notes: VH/VL only
B10: 367_E02 (antibody, V domains shown)
VH: B1 VH with G33S, S59G
VL: not shown
notes: VH/VL only
B11: 367_F02 (antibody, V domains shown)
VH: B1 VH with G33S, G50N
VL: B1 VL with L30I, V47L, D93E, T94S
notes: VH/VL only
B12: 369_F07 (antibody, V domains shown)
VH: B1 VH with G33S, T58K
VL: B1 VL with H55A, D93E, T94S
notes: VH/VL only
B13: 368_C01 (antibody, V domains shown)
VH: B1 VH with S59G, H106A
VL: B1 VL with L30I, S31T, V33L, V47L, H55A, T94S
notes: VH/VL only
B14: 369_B09 (antibody, V domains shown)
VH: B1 VH with N35H, G50S
VL: B1 VL with S31T, V33L, V47L, H55A, D93E, T94N
notes: VH/VL only
B15: 368_D10 (antibody, V domains shown)
VH: B1 VH with G55S, H106A
VL: B1 VL with V33L, H55A, T94S
notes: VH/VL only
B16: 369_B12 (antibody, V domains shown)
VH: B1 VH with G33S, A49S, T58K
VL: B1 VL with S31T, V47L, A51T, R54L, H55A, T94S
notes: VH/VL only
B17: 369_B02 (antibody, V domains shown)
VH: B1 VH with G33S, A49S, T58K
VL: B1 VL with V33L, H55A, D93N, T94L
notes: VH/VL only
B18: 368_F12 (antibody, V domains shown)
VH: B1 VH with S31D, G33S, G50S, G55S, T58K
VL: B1 VL with L30V, S31T, V33L, R54L, H55A, T94L
notes: VH/VL only
B19: 368_H01 (antibody, V domains shown)
VH: B1 VH with D30S, G33S, G55S, T58K
VL: B1 VL with V33L, V47L, A51T, R54L, H55A, T94N
notes: VH/VL only
B20: 369_A10 (antibody, V domains shown)
VH: B1 VH with G33S, G55S, S59G
VL: B1 VL with V33L, V47L, H55A, D93E, T94L
notes: VH/VL only
B21: 368_G05 (antibody, V domains shown)
VH: B1 VH with G33S
VL: B1 VL with S31T, V47L, R54L, D93N
notes: VH/VL only
B22: 367_C03 (antibody, V domains shown)
VH: B1 VH with D30S, G33S, G50N, S59G, H106A
VL: B1 VL with A51T, H55A, D93E, T94N
notes: VH/VL only
B23: 368_H07 (antibody, V domains shown)
VH: B1 VH with D30S, N35H, G50S, G55S
VL: B1 VL with V33L, V47L, H55A, D93E, T94N
notes: VH/VL only
B24: 368_G09 (antibody, V domains shown)
VH: B1 VH with N35H, G50N
VL: B1 VL with L30V, V33L, H55A
notes: VH/VL only
B25: 368_C06 (antibody, V domains shown)
VH: B1 VH with G33S, T58K
VL: not shown
notes: VH/VL only
B26: 369_D11 (antibody, V domains shown)
VH: B1 VH with D30S, N35H, G50S
VL: B1 VL with S31T, V33L, R54L, H55A, Y92D, D93E, T94L
notes: VH/VL only

Key:
[1] = molecular target: T1, biotinylated goat anti-human kappa light chain; test: ELISA; positive control
T1 construct: Positive control of the ELISA
In short: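 Monoclonal antibodies were first applied to human or mouse ACVR2A, alongside biotinylated goat anti-human kappa light chain (positive control) and human Fc (negative control); binding was then determined by ELISA.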

human ACVR2A = human ACVR2A (human, UniProt P27037 20-135, limits assumed); test: ELISA
Sequence of human ACVR2A (P27037 20-135 limits assumed): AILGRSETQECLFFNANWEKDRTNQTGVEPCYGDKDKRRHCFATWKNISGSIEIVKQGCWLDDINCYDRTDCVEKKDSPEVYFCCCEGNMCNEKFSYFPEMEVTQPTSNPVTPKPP
In short: (§1)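 ELISA measured binding of ACVR2A-specific monoclonal antibodies to human and mouse ACVR2A. Biotinylated goat anti-human kappa light chain served as positive control and human Fc as negative control.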

mouse ACVR2A = mouse ACVR2A (mouse, UniProt P27038 20-135, limits assumed); test: ELISA
Sequence of mouse ACVR2A (P27038 20-135 limits assumed): as the sequence (P27037 20-135 limits assumed) above, with K20R, V73I counted along it
In short: as §1
Note: test concentration or dose not given here.

Binder | optical density [1] | optical density (human ACVR2A) | optical density (mouse ACVR2A)
B1 | 3.45 OD | 2.18 OD | 2.41 OD
B2 | 3.59 OD | 3.36 OD | 3.53 OD
B3 | 3.44 OD | 2.27 OD | 2.48 OD
B4 | 3.48 OD | 3.29 OD | 3.25 OD
B5 | 3.37 OD | 2.48 OD | 2.46 OD
B6 | 3.29 OD | 3.02 OD | 3.2 OD
B7 | 3.57 OD | 2.64 OD | 2.69 OD
B8 | 3.73 OD | 2.57 OD | 2.92 OD
B9 | 3.46 OD | 2.72 OD | 2.68 OD
B10 | 3.44 OD | 1.87 OD | 2.03 OD
B11 | 3.52 OD | 2.38 OD | 2.27 OD
B12 | 3.47 OD | 3.43 OD | 3.43 OD
B13 | 3.71 OD | 2.61 OD | 2.92 OD
B14 | 2.22 OD | 1.62 OD | 1.58 OD
B15 | 3.26 OD | 2.25 OD | 2.45 OD
B16 | 3.56 OD | 2.67 OD | 2.76 OD
B17 | 3.52 OD | 3.4 OD | 3.55 OD
B18 | 3.52 OD | 1.69 OD | 1.7 OD
B19 | 3.69 OD | 3.03 OD | 3.14 OD
B20 | 3.41 OD | 3.38 OD | 3.14 OD
B21 | 3.35 OD | 2.17 OD | 2.42 OD
B22 | 3.51 OD | 2.3 OD | 2.81 OD
B23 | 3.55 OD | 2.71 OD | 2.86 OD
B24 | 3.62 OD | 2.44 OD | 2.81 OD
B25 | 3.52 OD | 0.738 OD | 1.03 OD
B26 | 3.45 OD | 2.99 OD | 2.99 OD
